Experimental findings from patent US20160115245A1 (VIB VZW, published 2016) are described below.

The target of experiment [1] is T1, recombinant human superoxide dismutase [Cu-Zn] (SOD1), wild type (human, UniProt P00441 2-154).
T1 construct: Used immobilised in the dot blot and in solution in ITC; The construct is not described further; also called recombinant SOD1; SOD1 WT
The experiment is described as follows: isothermal titration calorimetry, 25 C. In general terms: Isothermal titration calorimetry measures the heat released or taken up as one component is titrated into another.

The target in experiment [2] is T1, recombinant human superoxide dismutase …. The experiment in a line: isothermal titration calorimetry, 25 C. The source holds these as a separate data set.
Experiment [3] has as its target T2, SOD1-CFP (human SOD1 fused to CFP, expressed in HeLa cells) (human, UniProt P00441 2-154).
T2 construct: not shown: CFP of pCDNA3-CFP (Addgene #13030)
The experiment in a line: Ni-agarose pull-down of HA-Myc-His6 tagged nanobody from co-transfected HeLa cells, blot anti-CFP.

T1 sequence (P00441 2-154 limits assumed): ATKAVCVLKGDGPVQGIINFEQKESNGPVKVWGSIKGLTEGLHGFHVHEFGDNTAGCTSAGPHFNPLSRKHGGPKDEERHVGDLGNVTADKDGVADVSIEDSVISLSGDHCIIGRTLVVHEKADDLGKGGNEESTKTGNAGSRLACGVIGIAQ
T2 sequence (P00441 2-154): as the sequence (P00441 2-154 limits assumed) above

B1: Nb1, His6-tagged, expressed in E. coli (pET30a) (VHH)
VHH: QVQLQESGGGLVQPGGSLRLSCRASETLFSLYAMGWYRQAPGKQPELIATISGGGEGTGNYADPVKGRFTISRNNADNMVFLQMNNLKPEDTAVYYCNVYGTNLAPWGQGTQVTVSS
notes: Alpaca-derived nanobody; also called SOD1 nanobody from alpaca library; not shown: His6 tag and the pET30a vector residues around it
By Kd is commonly meant a measure of binding affinity in units of concentration. Consider B1, for which the Kd in experiment [1] is about 200 nM. Besides, in experiment [2], the ΔH is -11 kcal/mol and the ΔS was -17 cal/mol/deg.

B2: Nb2, His6-tagged, expressed in E. coli (pET30a) (VHH)
VHH: QVQLQESGGGSVQAGGSLRLACVASGGDTRPYITYWMGWYRQAPGKEREGVATIYTGGSGTYYSDSVEGRFTISQDKAQRTVYLQMNDLKPEDTAMYYCAAGNGALPPGRRLSPQNMDTWGPGTQVTVSS
notes: Dromedary-derived nanobody; also called SOD1 nanobody from dromedary library; not shown: His6 tag from pET30a (BamHI/XhoI)
Regarding B2, the Kd in experiment [1] is about 1000 nM. In addition, in experiment [2], the ΔH is -16 kcal/mol and the ΔS is -23 cal/mol/deg.

B3: Nb4 (VHH)
VHH: QVQLQESGGGSVQTGGSLRLSCAASGYTFSSYCMGWFRQAPGKERELVSTIISDGSTYYADSVKGRFTISQDNAKNTVYLQMNNLKAEDTAIYYCAARSGGVCSGRASRYNYWGQGTQVTVSS
notes: Same nanobody as m4, but in the HeLa-expressed HA-Myc-His6 format of m6-m8; also called Nb4, HA-Myc-His6 tagged, expressed in HeLa cells
In the case of B3, the binding result in experiment [3] is recorded as “no binding”.
